From US20180282403A1, “AGENTS FOR REDUCING THE ACTIVITY OF GDF15” (GENAGON THERAPEUTICS AB, priority 2015, published 2018) come the findings set out here.

The target in this assay is T1, GDF15 (Homo sapiens, UniProt Q99988).
T1 construct: purchased Abcam
T1 sequence (Q99988 197-308 limits assumed): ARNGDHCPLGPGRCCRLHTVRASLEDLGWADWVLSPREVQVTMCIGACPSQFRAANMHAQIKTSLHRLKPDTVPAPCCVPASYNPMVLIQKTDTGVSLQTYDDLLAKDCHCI
Nature of the assay: Pepstar peptide array: GDF15 binding to 15-mers of extracellular loop2 (ECD3) of QRFPR. Particulars: amino acid walk and alanine scan of 15-mers; FIG. 12. The text has this: In order to determine the key amino acids and a minimal epitope present in the third extracellular domain of QRFPR (extracellular loop 2) we designed a Pepstar peptide array, purchased from JPT peptides. In short the array included complete coverage of the extracellular loop2 of QRFPR, divided into 15-mers. Peptides of this length (15-mers) were selected based on recommended length by the manufacturer, based on factors such as efficiency of synthesis, purity and yield by FMOC chemistry. The 15-mers were either varied according to amino acid walk, single or double alanine scan. Each set was analysed in triplicates. GDF15 was diluted into PBS-T (0.05% Tween-20) and incubated under mild agitation on an orbital shaker overnight at +4 C. Washes was done under agitation on a Sky line orbital shaker DOS-10L, ELMI.
Primary antibodies against GDF15 were added to wells with prior GDF15 incubation and to adjacent control wells where GDF15 had been omitted (only PBS-T) and incubated for 1 hr RT under agitation on orbital shaker. After repeated washes fluorophore-conjugated secondary antibodies were added, and after final washes the array was analysed on a G2502 Microarray scanner, Agilent Technologies. Fluorescence values from technical controls and control wells (no GDF15) were subtracted and resulting values in triplicate was analysed in Excel and Prism.

As for “FLYEKEHIC (listed as Homo sapiens) [SEQ ID NO:11]”, the “GDF15 binding to immobilised QRFPR ECD3 peptides” value is reported as “essential for GDF15 binding”.
